# According to patent US20220265759:
# T1: human chemokine receptor CCR10, P46092
# T1 chain: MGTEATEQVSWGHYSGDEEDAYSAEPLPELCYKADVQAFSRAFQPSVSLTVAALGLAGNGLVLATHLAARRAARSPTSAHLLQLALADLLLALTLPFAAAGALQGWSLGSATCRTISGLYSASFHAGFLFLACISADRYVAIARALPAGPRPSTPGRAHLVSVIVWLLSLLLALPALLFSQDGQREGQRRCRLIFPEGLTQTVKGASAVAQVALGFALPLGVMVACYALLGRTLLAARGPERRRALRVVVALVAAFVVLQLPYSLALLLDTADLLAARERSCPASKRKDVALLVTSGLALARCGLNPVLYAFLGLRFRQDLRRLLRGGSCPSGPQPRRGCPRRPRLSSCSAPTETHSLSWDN
# B1: human endothelial nitric oxide synthase (eNOS) (protein)
# chain: GNLKSVAQEPGPPCGLGLGLGLGLCGKQGPATPAPEPSRAPASLLPPAPEHSPPSSPLTQPPEGPKFPRVKNWEVGSITYDTLSAQAQQDGPCTPRRCLGSLVFPRKLQGRPSPGPPAPEQLLSQARDFINQYYSSIKRSGSQAHEQRLQEVEAEVAATGTYQLRESELVFGAKQAWRNAPRCVGRIQWGKLQVFDARDCRSAQEMFTYICNHIKYATNRGNLRSAITVFPQRCPGRGDFRIWNSQLVRYAGYRQQDGSVRGDPANVEITELCIQHGWTPGNGRFDVLPLLLQAPDDPPELFLLPPELVLEVPLEHPTLEWFAALGLRWYALPAVSNMLLEIGGLEFPAAPFSGWYMSTEIGTRNLCDPHRYNILEDVAVCMDLDTRTTSSLWKDKAAVEINVAVLHSYQLAKVTIVDHHAATASFMKHLENEQKARGGCPADWAWIVPPISGSLTPVFHQEMVNYFLSPAFRYQPDPWKGSAAKGTGITRKKTFKEVANAVKISASLMGTVMAKRVKATILYGSETGRAQSYAQQLGRLFRKAFDPRVLCMDEYDVVSLEHETLVLVVTSTFGNGDPPENGESFAAALMEMSGPYNSSPRPEQHKSYKIRFNSISCSDPLVSSWRRKRKESSNTDSAGALGTLRFCVFGLGSRAYPHFCAFARAVDTRLEELGGERLLQLGQGDELCGQEEAFRGWAQAAFQAACETFCVGEDAKAAARDIFSPKRSWKRQRYRLSAQAEGLQLLPGLIHVHRRKMFQATIRSVENLQSSKSTRATILVRLDTGGQEGLQYQPGDHIGVCPPNRPGLVEALLSRVEDPPAPTEPVAVEQLEKGSPGGPPPGWVRDPRLPPCTLRQALTFFLDITSPPSPQLLRLLSTLAEEPREQQELEALSQDPRRYEEWKWFRCPTLLEVLEQFPSVALPAPLLLTQLPLLQPRYYSVSSAPSTHPGEIHLTVAVLAYRTQDGLGPLHYGVCSTWLSQLKPGDPVPCFIRGAPSFRLPPDPSLPCILVGPGTGIAPFRGFWQERLHDIESKGLQPTPMTLVFGCRCSQLDHLYRDEVQNAQQRGVFGRVLTAFSREPDNPKTYVQDILRTELAAEVHRVLCLERGHMFVCGDVTMATNVLQTVQRILATEGDMELDEAGDVIGVLRDQQRYHEDIFGLTLRTQEVTSRIRTQSFSLQERQLRGAVPWAFDPPGSDTNSP
# Molecular target: T1, human chemokine receptor CCR10, P46092
protein,measurement,value
B1,eNOS phosphorylation (Ser1177) in presence of Myr-CBD7,eNOS phosphorylation (Ser1177) was significantly enhanced in presence of Myr-CBD7
same,"phosphorylation of eNOS after CCR10 siRNA knockdown (western blot, A23187 stimulation)","phosphorylation of eNOS was significantly increased compared to control siRNA, even at 0 minutes"
